Tests used:
His-SUS4 = molecular target: T1, His-SUS4 (Arabidopsis, UniProt Q9LXL5 1-808); assay: MST; sfGFP-RGS1(ΔC-tail) as the fluorescent target, His-SUS1 or His-SUS4 as ligands; NanoTemper Monolith NT.115; conditions: both partners purified
T1 construct: Gateway pDEST17 adds linker residues between the His tag and the protein; also called SUCROSE SYNTHASE 4; source: E. coli ArcticExpress RP, purified (Ni-NTA, Superdex 200 SEC); not shown: 6xHis, N-terminal, kept

His-SUS1 = molecular target: T2, His-SUS1 (Arabidopsis, UniProt P49040 1-808); assay: as above; conditions: both partners purified
T2 construct: Gateway pDEST17 adds linker residues between the His tag and the protein; also called SUCROSE SYNTHASE 1; source: E. coli ArcticExpress RP, purified (Ni-NTA, Superdex 200 SEC); not shown: 6xHis, N-terminal, kept
T2 sequence (P49040 whole entry): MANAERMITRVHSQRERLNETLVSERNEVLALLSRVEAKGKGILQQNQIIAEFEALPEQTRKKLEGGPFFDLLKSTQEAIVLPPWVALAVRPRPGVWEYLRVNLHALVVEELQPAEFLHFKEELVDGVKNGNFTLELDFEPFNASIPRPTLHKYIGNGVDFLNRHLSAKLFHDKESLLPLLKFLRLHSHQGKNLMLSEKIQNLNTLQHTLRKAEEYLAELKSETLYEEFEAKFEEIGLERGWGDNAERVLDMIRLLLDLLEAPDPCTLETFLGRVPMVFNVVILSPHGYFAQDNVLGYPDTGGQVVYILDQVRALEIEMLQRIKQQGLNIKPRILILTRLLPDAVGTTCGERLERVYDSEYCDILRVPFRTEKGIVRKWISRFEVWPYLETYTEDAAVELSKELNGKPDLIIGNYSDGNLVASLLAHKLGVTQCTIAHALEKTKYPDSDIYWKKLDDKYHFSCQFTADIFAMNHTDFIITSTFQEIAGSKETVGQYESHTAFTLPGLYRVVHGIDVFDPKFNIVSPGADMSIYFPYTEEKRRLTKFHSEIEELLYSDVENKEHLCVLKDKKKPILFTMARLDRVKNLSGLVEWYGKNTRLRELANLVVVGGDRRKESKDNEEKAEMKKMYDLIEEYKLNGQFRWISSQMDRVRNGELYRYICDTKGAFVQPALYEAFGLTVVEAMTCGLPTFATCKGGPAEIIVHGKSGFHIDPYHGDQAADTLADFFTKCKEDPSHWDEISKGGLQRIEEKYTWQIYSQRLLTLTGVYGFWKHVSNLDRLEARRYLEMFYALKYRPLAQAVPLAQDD

T1 sequence (Q9LXL5 whole entry): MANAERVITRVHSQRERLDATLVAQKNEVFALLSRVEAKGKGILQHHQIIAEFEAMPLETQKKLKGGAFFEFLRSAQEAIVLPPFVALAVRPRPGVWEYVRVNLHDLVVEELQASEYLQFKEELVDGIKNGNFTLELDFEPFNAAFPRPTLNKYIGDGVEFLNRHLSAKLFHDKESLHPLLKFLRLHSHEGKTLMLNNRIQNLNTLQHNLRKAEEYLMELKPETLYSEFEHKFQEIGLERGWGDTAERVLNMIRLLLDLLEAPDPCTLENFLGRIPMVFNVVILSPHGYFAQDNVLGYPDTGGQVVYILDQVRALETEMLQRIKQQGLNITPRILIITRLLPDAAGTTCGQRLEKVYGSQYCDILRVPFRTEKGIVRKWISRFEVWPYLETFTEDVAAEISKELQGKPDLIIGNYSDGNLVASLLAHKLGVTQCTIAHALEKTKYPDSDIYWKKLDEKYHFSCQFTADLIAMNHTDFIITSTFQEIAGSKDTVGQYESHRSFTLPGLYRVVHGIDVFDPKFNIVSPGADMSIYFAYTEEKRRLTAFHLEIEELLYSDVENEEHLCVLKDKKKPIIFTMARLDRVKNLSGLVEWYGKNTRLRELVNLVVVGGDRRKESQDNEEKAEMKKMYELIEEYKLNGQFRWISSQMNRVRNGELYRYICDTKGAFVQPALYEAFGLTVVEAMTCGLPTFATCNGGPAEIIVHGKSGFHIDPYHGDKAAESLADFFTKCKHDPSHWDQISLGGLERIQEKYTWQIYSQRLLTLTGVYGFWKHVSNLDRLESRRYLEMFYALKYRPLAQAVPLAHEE

- Kd (His-SUS4): 106 ± 3 nM
- Kd (His-SUS1): 161 ± 9 nM
B1: HA–Flag–10xHis–sfGFP–TEV–Optimized–RGS1(ΔC-tail) (domain or fragment)
chain: MASGCALHGGCPSDYVAVAISVICFFVLLSRSVLPCLIHKAPRTNSSSFWIPVIQVISSFNLLFSIMMSVNLLRFRTKHWWRYCYLWAVWIEGPLGFGLLMSCRITQAFQLYFIFVKKRLPPVKSYIFLPLVLLPWIFGAAIIHATKPLNDKCHMGLQWTFPVAGLHALYVLALIAFTRAVRHVEFRFDELRDLWKGILVSATSIVIWVTAFVLNEIHEEISWLQVASRFVLLVTGGILVVVFFSISSNQPLLSQISLKKRQNFEFQRMGQALGIPDSGLLFRKEEFRPVDPNEPLDKLLLNKRFRHSFMEFADSCYAGETLHFFEEVYEHGKIPEDDSIRRIYMARHIMEKFIVAGAEMELNLSHKTRQEILTTQDLTHTDLFKNALNEVMQLIKMNLVRDYWSSIYFIKFKEEESCHEAMHKEGY

— publication doi:10.1101/2025.09.10.672744, “UDP-glucose Activation of a G-protein/Sucrose Synthase Signaling Supercomplex” (bioRxiv, 2025)
